Assay results as given in patent US20260265396A1.

B1: bispecific binding molecule (format of WO2022/258841) with h26D3 scFv module (bispecific antibody, part only; not given: Cargo antibody chains, linkers, domain order, V domains shown, not shown: another chain or arm of the molecule; large carriers; small tags and cut ends)
VH: EVQLVQSGAEVKKPGSSVKVSCKASGYIFTDYNMDWVRQAPGQGLEWIGDINPDYDTTSYNEKFKGRATLTVDKSTSTAYMELSSLRSEDTAVYYCARGGYSGSSYYHPMDYWGQGTLVTVSS
VL: DIQMTQSPSSVSASVGDRVTITCKSSQSLLYSTNQKNYLAWYQQKPGKAPKLLIYWASTRESGVPSRFSGSGSGTDFTLTISSLQPEDFATYYCQQYFIYPRTFGQGTKVEIK
B2: bispecific binding molecule (format of WO2022/258841) with h26D3 HC6 scFv module (bispecific antibody, part only; not given: Cargo antibody chains, linkers, domain order, V domains shown, not shown: another chain or arm of the molecule; large carriers; small tags and cut ends)
VH: EVQLVQSGAEVKKPGSSVKVSCKASGYIFTDYNMDWVRQAPGQGLEWIGDINPDADTTSYNEKFKGRATLTVDKSTSTAYMELSSLRSEDTAVYYCARGGYSGSSYYHPMDYWGQGTLVTVSS
VL: DIQMTQSPSSVSASVGDRVTITCKSSQSLLYSTNQKNYLAWYQQKPGKAPKLLIYWASTRESGVPSRFSGSGSGTDFTLTISSLQPEDFATYYCQQYFIYPRTFGQGTKVEIK
B3: bispecific binding molecule (format of WO2022/258841) with h26D3 LC1 scFv module (bispecific antibody, part only; not given: Cargo antibody chains, linkers, domain order, V domains shown, not shown: another chain or arm of the molecule; large carriers; small tags and cut ends)
VH: EVQLVQSGAEVKKPGSSVKVSCKASGYIFTDYNMDWVRQAPGQGLEWIGDINPDYDTTSYNEKFKGRATLTVDKSTSTAYMELSSLRSEDTAVYYCARGGYSGSSYYHPMDYWGQGTLVTVSS
VL: DIQMTQSPSSVSASVGDRVTITCKSSQSLLASTNQKNYLAWYQQKPGKAPKLLIYWASTRESGVPSRFSGSGSGTDFTLTISSLQPEDFATYYCQQYFIYPRTFGQGTKVEIK
B4: bispecific binding molecule (format of WO2022/258841) with h26D3 LC5 scFv module (bispecific antibody, part only; not given: cargo antibody chains, linkers, format, V domains shown, not shown: another chain or arm of the molecule; large carriers; small tags and cut ends)
VH: EVQLVQSGAEVKKPGSSVKVSCKASGYIFTDYNMDWVRQAPGQGLEWIGDINPDYDTTSYNEKFKGRATLTVDKSTSTAYMELSSLRSEDTAVYYCARGGYSGSSYYHPMDYWGQGTLVTVSS
VL: DIQMTQSPSSVSASVGDRVTITCKSSQSLLYSTNQKNYLAWYQQKPGKAPKLLIYWASTRESGVPSRFSGSGSGTDFTLTISSLQPEDFATYYCQQAFIYPRTFGQGTKVEIK
B5: mouse monoclonal antibody 26D3 (antibody, mouse IgG2a, V domains shown)
VH: EVQLQQFGVELVKPGASVKISCKASGYIFTDYNMDWVKQSHGKSLEWIGDINPDYDTTSYNEKFKGKATLTVDKSSSTAYMELRSLTSEDTAVYYCARGGYSGSSYYHPMDYWGQGTSVTVSS
VL: DIVMSQSPSSLAVSVGEKITMSCKSSQSLLYSTNQKNYLAWYQQKPGQSPELLIYWASTRESGVPDRFTGSGSGTDFTLTISNVRAEDLAVYYCQQYFIYPRTFGGGTKLEIK

Legend:
[1] = molecular target: truncated hTfR1 of SEQ ID NO:89 (human) (UniProt P02786); assay: SPR, hTfR1 on CM5, bispecific molecule with scFv module injected
Chain of truncated hTfR1 of SEQ ID NO:89 (human) (P02786 other isoform, or with tags, fused parts or gaps limits assumed): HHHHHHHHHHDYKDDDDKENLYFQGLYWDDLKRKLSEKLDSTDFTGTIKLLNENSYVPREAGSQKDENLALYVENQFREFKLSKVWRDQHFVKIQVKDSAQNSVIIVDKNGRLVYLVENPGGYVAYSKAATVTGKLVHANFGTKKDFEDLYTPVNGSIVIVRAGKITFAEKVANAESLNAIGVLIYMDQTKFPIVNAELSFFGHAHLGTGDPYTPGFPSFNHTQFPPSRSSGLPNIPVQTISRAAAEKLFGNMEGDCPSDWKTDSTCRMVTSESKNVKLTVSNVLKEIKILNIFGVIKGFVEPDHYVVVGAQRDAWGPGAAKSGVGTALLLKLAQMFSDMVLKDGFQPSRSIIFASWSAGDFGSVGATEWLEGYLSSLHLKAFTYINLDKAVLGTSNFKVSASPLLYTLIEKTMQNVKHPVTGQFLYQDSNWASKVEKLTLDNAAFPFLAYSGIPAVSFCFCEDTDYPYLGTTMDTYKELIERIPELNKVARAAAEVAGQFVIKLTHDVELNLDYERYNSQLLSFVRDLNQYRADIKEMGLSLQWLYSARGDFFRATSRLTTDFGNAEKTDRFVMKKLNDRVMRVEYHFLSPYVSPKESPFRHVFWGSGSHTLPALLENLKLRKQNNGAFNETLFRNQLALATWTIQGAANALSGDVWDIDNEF

[2] = molecular target: His10-mTfR1 (SEQ ID NO:53) (mouse) (UniProt Q62351); assay: indirect ELISA, His10-mTfR1 captured on Ni-coated plate, hybridoma supernatant
Chain of His10-mTfR1 (SEQ ID NO:53) (mouse) (Q62351 other isoform, or with tags, fused parts or gaps limits assumed): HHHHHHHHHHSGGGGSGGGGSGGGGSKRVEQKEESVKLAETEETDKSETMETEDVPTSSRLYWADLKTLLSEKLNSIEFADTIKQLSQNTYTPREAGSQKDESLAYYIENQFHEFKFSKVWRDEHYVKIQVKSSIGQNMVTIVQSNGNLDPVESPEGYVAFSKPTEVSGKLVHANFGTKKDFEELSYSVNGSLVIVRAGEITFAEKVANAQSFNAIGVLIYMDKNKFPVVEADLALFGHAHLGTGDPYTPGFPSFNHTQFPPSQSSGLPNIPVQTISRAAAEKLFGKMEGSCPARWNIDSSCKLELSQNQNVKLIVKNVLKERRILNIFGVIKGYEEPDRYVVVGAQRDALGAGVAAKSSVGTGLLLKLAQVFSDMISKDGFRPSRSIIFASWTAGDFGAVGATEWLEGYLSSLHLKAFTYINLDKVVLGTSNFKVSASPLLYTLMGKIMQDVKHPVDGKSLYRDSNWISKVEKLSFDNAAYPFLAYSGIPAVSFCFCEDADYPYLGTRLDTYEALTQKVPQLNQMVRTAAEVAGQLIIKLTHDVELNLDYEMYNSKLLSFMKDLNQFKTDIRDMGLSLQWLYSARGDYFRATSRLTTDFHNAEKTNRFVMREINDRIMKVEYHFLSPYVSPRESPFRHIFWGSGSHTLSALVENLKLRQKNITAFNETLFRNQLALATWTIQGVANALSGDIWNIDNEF

Row | Binder | Kd [1] [nM] | OD450 (indirect ELISA) [2] [OD]
1 | B1 | 10 | –
2 | B2 | 100 to 200 | –
3 | B3 | 40 | –
4 | B4 | 400 to 500 | –
5 | B5 | – | > 0.2
